According to patent publication US20070265198A1 (ROCKEFELLER UNIVERSITY, published 2007):

Experiments:
[1] = target: T1, PlyC-A, the PlyC heavy chain (C1 bacteriophage lysin, ORF 11) (C1 bacteriophage, UniProt Q7Y3F1 2-465); assay: N-terminal sequencing signals of the native enzyme (55 pm PlyC-B, 12 pm PlyC-A)
T1 construct: 50 kDa subunit of the PlyC lysin; also called heavy subunit (ORF 11); plyCA gene product
T1 sequence: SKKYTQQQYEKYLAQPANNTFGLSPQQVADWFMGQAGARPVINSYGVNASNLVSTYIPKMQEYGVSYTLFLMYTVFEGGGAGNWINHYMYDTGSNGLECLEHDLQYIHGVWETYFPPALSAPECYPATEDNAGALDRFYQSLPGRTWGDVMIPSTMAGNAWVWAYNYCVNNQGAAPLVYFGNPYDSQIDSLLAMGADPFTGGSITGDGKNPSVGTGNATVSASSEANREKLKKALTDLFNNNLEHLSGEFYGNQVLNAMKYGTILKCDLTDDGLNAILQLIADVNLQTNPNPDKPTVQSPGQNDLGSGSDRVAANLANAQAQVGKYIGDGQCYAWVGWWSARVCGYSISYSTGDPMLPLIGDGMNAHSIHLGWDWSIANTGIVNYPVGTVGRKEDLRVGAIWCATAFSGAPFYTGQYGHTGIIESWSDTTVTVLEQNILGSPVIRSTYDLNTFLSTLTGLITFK

[2] = target: T1, PlyC-A, the PlyC heavy chain (C1 …); assay: 35S-methionine labelling of purified PlyC, SDS-PAGE bands counted by scintillation (n=20), cpm per methionine
Description: ³⁵S-methionine labeling of PlyC. […] A fresh 20 ml overnight culture of B834/pBAD24::plyC was washed twice with M9 media, and used to inoculate a 2 L flask of M9 minimal media supplemented with 2 mCi ³⁵S-methionine (New England Nuclear). Expression of ³⁵S-Methionine-PlyC was induced with 0.5% arabinose and the enzyme was purified as described above. The heavy and light chains were resolved by SDS-PAGE using 15 μg of labeled PlyC loaded each lane (n=20). Individual bands were cut out of the gel, suspended in 1 ml of SigmaFluor scintillation fluid (Sigma), and counts per minute (cpm) of β-activity was assessed on a Beckman LS5000TD counter.
In order to achieve a mass of 100 kDa, multiple copies of one or both subunits must exist. Thus, PlyC is a multimer. Circumstantial evidence for a molar ratio of 5 light chains to one heavy chain was obtained from N-terminal sequencing of the native enzyme, which yielded a 55 pm signal for PlyC-B and a 12 pm signal for PlyC-A (data not shown). […] Therefore, to further investigate the ratios of PlyC-A and PlyC-B, we cloned plyC into B834 E. coli cells, which are auxotrophic for methionine. […] We were able to enumerate an average signal, measured in counts per minute, for each chain by placing gel-extracted bands (n=20) in scintillation fluid and measuring the β activity (Table IV). […]

[3] = target: T2, PlyC-A, the PlyC heavy chain (C1 bacteriophage lysin, ORF 11)
T2 chain: T1 sequence

B1: PlyC-B, the PlyC light chain (C1 bacteriophage lysin, ORF 9) (enzyme)
chain: SKINVNVENVSGVQGFLFHTDGKESYGYRAFINGVEIGIKDIETVQGFQQIIPSINISKSDVEAIRKAMKK
notes: 8 kDa subunit of the PlyC lysin, a 72 amino acid polypeptide; About six copies per PlyC-A are proposed in the native multimer; also called light subunit (ORF 9); plyCB gene product
molar ratio of light chains to heavy chain [1]: 5 light chains per heavy chain
Avg. ratio PlyC-A:PlyC-B [2]: 6.17 PlyC-B per PlyC-A
PlyC lytic activity of a double transformant (pBAD33::plyCB and pBAD24::plyCA in one host) [3]: Upon induction with 0.5% arabinose, the double transformant contained PlyC activity
activity of the refolded PlyC-B and PlyC-A mixture, normalized to the native PlyC clone (FIG. 3, lane 5) [3]: reconstituted ~25% of the wild-type activity (lane 5)
lytic activity on group A streptococci (chains expressed individually, mixed, incubated 1 hr at room temperature) [3]: When both chains were mixed together and allowed to incubate at room temperature for 1 hr, again no activity was noted
lytic activity on group A streptococci after urea denaturation and refolding of the mixed chains, relative to wild-type PlyC [3]: we were able to reconstitute ~30% of wild-type activity
lytic activity on group A streptococci of a lil- chimera with full-length plyCB and plyCA [3]: a lil- chimera, which contained full-length plyCB and plyCA, possessed wild-type PlyC activity
